Experimental data taken from patent US20260209386A1 (MYTHIC THERAPEUTICS, published 2026).

T1: Human PTK7 Protein, His Tag (Acro Biosystems) (human, UniProt Q13308 31-704)
T1 construct: Bought His-tagged recombinant human PTK7; also called CCK4; Tyrosine-protein kinase-like 7
T1 sequence: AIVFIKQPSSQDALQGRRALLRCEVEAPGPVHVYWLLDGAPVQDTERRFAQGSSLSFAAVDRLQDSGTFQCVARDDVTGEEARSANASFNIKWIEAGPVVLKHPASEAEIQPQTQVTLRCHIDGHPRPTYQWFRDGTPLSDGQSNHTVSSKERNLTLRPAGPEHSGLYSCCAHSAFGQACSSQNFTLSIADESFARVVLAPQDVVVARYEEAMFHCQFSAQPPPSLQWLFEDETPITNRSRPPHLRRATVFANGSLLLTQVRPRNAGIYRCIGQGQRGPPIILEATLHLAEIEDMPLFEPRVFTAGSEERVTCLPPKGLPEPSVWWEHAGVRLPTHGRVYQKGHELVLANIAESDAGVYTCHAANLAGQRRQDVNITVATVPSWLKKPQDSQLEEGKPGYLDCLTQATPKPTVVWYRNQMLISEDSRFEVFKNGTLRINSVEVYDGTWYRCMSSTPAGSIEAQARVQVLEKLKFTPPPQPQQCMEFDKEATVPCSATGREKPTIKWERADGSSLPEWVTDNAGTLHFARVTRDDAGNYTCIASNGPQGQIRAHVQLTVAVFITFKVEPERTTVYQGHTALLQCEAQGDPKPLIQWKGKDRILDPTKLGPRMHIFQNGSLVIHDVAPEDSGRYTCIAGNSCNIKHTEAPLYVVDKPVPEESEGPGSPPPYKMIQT


molecular target: T1, Human PTK7 Protein, His Tag (Acro …); assay: BLI (Octet), antibody on anti-human Fc sensor, 50 nM PTK7; 1 = pH dependent binding

Row | Binder | binding result
1 | MYT10998 (antibody, V domains shown, MYT9359 LC variant; captured on anti-human Fc sensor) VH: EVQLVESGGGLVQPGGSLRLSCTASGFSLSSYAMGWVRQAPGKGLEWVGFINAGGNTYYANWAKGRFTISRDTSKNTVYLQMNSLRAEDTAVYFCARRYSRASGWYDLWGQGTLVTVSS VL: EIVMTQSPSTLSASVGDRVIITCQASQSIHSYLAWYQQKPGKAPKLLIYAASTLASGVPSRFSGSGSGAEFTLTISSLQPDDFATYYCQSYSYSSGIDYGDVFGQGTKLTVL | binds
2 | MYT11010 (antibody, V domains shown, MYT9359 LC variant; captured on anti-human Fc sensor) VH: EVQLVESGGGLVQPGGSLRLSCTASGFSLSSYAMGWVRQAPGKGLEWVGFINAGGNTYYANWAKGRFTISRDTSKNTVYLQMNSLRAEDTAVYFCARRYSRASGWYDLWGQGTLVTVSS VL: EIVMTQSPSTLSASVGDRVIITCQASQSISSYLAWYQQKPGKAPKLLIYAASTLASGVPSRFSGSGSGAEFTLTISSLQPDDFATYYCHSYSYSSGIDYGDVFGQGTKLTVL | binds
3 | MYT11006 (antibody, V domains shown, MYT9359 LC variant; captured on anti-human Fc sensor) VH: EVQLVESGGGLVQPGGSLRLSCTASGFSLSSYAMGWVRQAPGKGLEWVGFINAGGNTYYANWAKGRFTISRDTSKNTVYLQMNSLRAEDTAVYFCARRYSRASGWYDLWGQGTLVTVSS VL: EIVMTQSPSTLSASVGDRVIITCQASQSISSYLAWYQQKPGKAPKLLIYAASHLASGVPSRFSGSGSGAEFTLTISSLQPDDFATYYCQSYSYSSGIDYGDVFGQGTKLTVL | binds
4 | MYT11014 (antibody, V domains shown, MYT9359 LC variant; captured on anti-human Fc sensor) VH: EVQLVESGGGLVQPGGSLRLSCTASGFSLSSYAMGWVRQAPGKGLEWVGFINAGGNTYYANWAKGRFTISRDTSKNTVYLQMNSLRAEDTAVYFCARRYSRASGWYDLWGQGTLVTVSS VL: EIVMTQSPSTLSASVGDRVIITCQASQSISSYLAWYQQKPGKAPKLLIYAASTLASGVPSRFSGSGSGAEFTLTISSLQPDDFATYYCQSYSHSSGIDYGDVFGQGTKLTVL | binds
5 | MYT11013 (antibody, V domains shown, MYT9359 LC variant; captured on anti-human Fc sensor) VH: EVQLVESGGGLVQPGGSLRLSCTASGFSLSSYAMGWVRQAPGKGLEWVGFINAGGNTYYANWAKGRFTISRDTSKNTVYLQMNSLRAEDTAVYFCARRYSRASGWYDLWGQGTLVTVSS VL: EIVMTQSPSTLSASVGDRVIITCQASQSISSYLAWYQQKPGKAPKLLIYAASTLASGVPSRFSGSGSGAEFTLTISSLQPDDFATYYCQSYHYSSGIDYGDVFGQGTKLTVL | binds
6 | MYT11004 (antibody, V domains shown, MYT9359 LC variant; captured on anti-human Fc sensor) VH: EVQLVESGGGLVQPGGSLRLSCTASGFSLSSYAMGWVRQAPGKGLEWVGFINAGGNTYYANWAKGRFTISRDTSKNTVYLQMNSLRAEDTAVYFCARRYSRASGWYDLWGQGTLVTVSS VL: EIVMTQSPSTLSASVGDRVIITCQASQSISSYLAWYQQKPGKAPKLLIYAHSTLASGVPSRFSGSGSGAEFTLTISSLQPDDFATYYCQSYSYSSGIDYGDVFGQGTKLTVL | binds
7 | MYT11021 (antibody, V domains shown, MYT9359 LC variant; captured on anti-human Fc sensor) VH: EVQLVESGGGLVQPGGSLRLSCTASGFSLSSYAMGWVRQAPGKGLEWVGFINAGGNTYYANWAKGRFTISRDTSKNTVYLQMNSLRAEDTAVYFCARRYSRASGWYDLWGQGTLVTVSS VL: EIVMTQSPSTLSASVGDRVIITCQASQSISSYLAWYQQKPGKAPKLLIYAASTLASGVPSRFSGSGSGAEFTLTISSLQPDDFATYYCQSYSYSSGIDYHDVFGQGTKLTVL | binds
8 | MYT11025 (antibody, V domains shown, MYT9359 LC alanine variant; captured on anti-human Fc sensor) VH: EVQLVESGGGLVQPGGSLRLSCTASGFSLSSYAMGWVRQAPGKGLEWVGFINAGGNTYYANWAKGRFTISRDTSKNTVYLQMNSLRAEDTAVYFCARRYSRASGWYDLWGQGTLVTVSS VL: EIVMTQSPSTLSASVGDRVIITCQASQSISSYLAWYQQKPGKAPKLLIYAASTLASGVPSRFSGSGSGAEFTLTISSLQPDDFATYYCQSYSYSSGIAYGDVFGQGTKLTVL | binds
9 | MYT11018 (antibody, V domains shown, MYT9359 LC variant; captured on anti-human Fc sensor) VH: EVQLVESGGGLVQPGGSLRLSCTASGFSLSSYAMGWVRQAPGKGLEWVGFINAGGNTYYANWAKGRFTISRDTSKNTVYLQMNSLRAEDTAVYFCARRYSRASGWYDLWGQGTLVTVSS VL: EIVMTQSPSTLSASVGDRVIITCQASQSISSYLAWYQQKPGKAPKLLIYAASTLASGVPSRFSGSGSGAEFTLTISSLQPDDFATYYCQSYSYSSGHDYGDVFGQGTKLTVL | binds

Now from value to binder:

Row | binding result | Binder
10 | binds | MYT10999 (antibody, V domains shown, MYT9359 LC variant; captured on anti-human Fc sensor) VH: EVQLVESGGGLVQPGGSLRLSCTASGFSLSSYAMGWVRQAPGKGLEWVGFINAGGNTYYANWAKGRFTISRDTSKNTVYLQMNSLRAEDTAVYFCARRYSRASGWYDLWGQGTLVTVSS VL: EIVMTQSPSTLSASVGDRVIITCQASQSISHYLAWYQQKPGKAPKLLIYAASTLASGVPSRFSGSGSGAEFTLTISSLQPDDFATYYCQSYSYSSGIDYGDVFGQGTKLTVL
11 | binds | MYT11003 (antibody, V domains shown, MYT9359 LC variant; captured on anti-human Fc sensor) VH: EVQLVESGGGLVQPGGSLRLSCTASGFSLSSYAMGWVRQAPGKGLEWVGFINAGGNTYYANWAKGRFTISRDTSKNTVYLQMNSLRAEDTAVYFCARRYSRASGWYDLWGQGTLVTVSS VL: EIVMTQSPSTLSASVGDRVIITCQASQSISSYLAWYQQKPGKAPKLLIYHASTLASGVPSRFSGSGSGAEFTLTISSLQPDDFATYYCQSYSYSSGIDYGDVFGQGTKLTVL
12 | binds | MYT11012 (antibody, V domains shown, MYT9359 LC variant; captured on anti-human Fc sensor) VH: EVQLVESGGGLVQPGGSLRLSCTASGFSLSSYAMGWVRQAPGKGLEWVGFINAGGNTYYANWAKGRFTISRDTSKNTVYLQMNSLRAEDTAVYFCARRYSRASGWYDLWGQGTLVTVSS VL: EIVMTQSPSTLSASVGDRVIITCQASQSISSYLAWYQQKPGKAPKLLIYAASTLASGVPSRFSGSGSGAEFTLTISSLQPDDFATYYCQSHSYSSGIDYGDVFGQGTKLTVL
13 | binds | MYT11001 (antibody, V domains shown, MYT9359 LC variant; captured on anti-human Fc sensor) VH: EVQLVESGGGLVQPGGSLRLSCTASGFSLSSYAMGWVRQAPGKGLEWVGFINAGGNTYYANWAKGRFTISRDTSKNTVYLQMNSLRAEDTAVYFCARRYSRASGWYDLWGQGTLVTVSS VL: EIVMTQSPSTLSASVGDRVIITCQASQSISSYHAWYQQKPGKAPKLLIYAASTLASGVPSRFSGSGSGAEFTLTISSLQPDDFATYYCQSYSYSSGIDYGDVFGQGTKLTVL
14 | binds | MYT11000 (antibody, V domains shown, MYT9359 LC variant; captured on anti-human Fc sensor) VH: EVQLVESGGGLVQPGGSLRLSCTASGFSLSSYAMGWVRQAPGKGLEWVGFINAGGNTYYANWAKGRFTISRDTSKNTVYLQMNSLRAEDTAVYFCARRYSRASGWYDLWGQGTLVTVSS VL: EIVMTQSPSTLSASVGDRVIITCQASQSISSHLAWYQQKPGKAPKLLIYAASTLASGVPSRFSGSGSGAEFTLTISSLQPDDFATYYCQSYSYSSGIDYGDVFGQGTKLTVL
15 | binds | MYT11023 (antibody, V domains shown, MYT9359 LC variant; captured on anti-human Fc sensor) VH: EVQLVESGGGLVQPGGSLRLSCTASGFSLSSYAMGWVRQAPGKGLEWVGFINAGGNTYYANWAKGRFTISRDTSKNTVYLQMNSLRAEDTAVYFCARRYSRASGWYDLWGQGTLVTVSS VL: EIVMTQSPSTLSASVGDRVIITCQASQSISSYLAWYQQKPGKAPKLLIYAASTLASGVPSRFSGSGSGAEFTLTISSLQPDDFATYYCQSYSYSSGIDYGDHFGQGTKLTVL
